Results on two molecules are retold here after publication PMC5739537, “Computationally-driven identification of antibody epitopes” (eLife, 2017).

This experiment concerns the target T1, B7H6 (wild type) (human, UniProt Q68D85).
T1 construct: B7H6, human tumor antigen; complete extracellular and transmembrane domains; The results call it the full-length transmembrane protein, the methods complete extracellular and transmembrane domains; also called WT B7H6; WT Ag; source: HEK-293F, transfected (pPPI4 surface expression vector, polyethyleneimine), on the cell surface
Nature of the experiment: flow cytometry on cells; HEK-293F cells expressing WT B7H6 or designed variants, 2.5x10^5 cells/well; 100 nM TZ47, PB11 scFv-Fc or NKp30-Ig for 1 hr in PBS + 0.1% BSA; Anti-Mouse-AlexaFluor488 or Anti-Hu-AlexaFluor647 secondary Abs; integrated MFI normalised to NKp30-Ig binding and to WT B7H6; triplicate wells. Conditions: one partner purified.

T1 sequence (Q68D85 25-262): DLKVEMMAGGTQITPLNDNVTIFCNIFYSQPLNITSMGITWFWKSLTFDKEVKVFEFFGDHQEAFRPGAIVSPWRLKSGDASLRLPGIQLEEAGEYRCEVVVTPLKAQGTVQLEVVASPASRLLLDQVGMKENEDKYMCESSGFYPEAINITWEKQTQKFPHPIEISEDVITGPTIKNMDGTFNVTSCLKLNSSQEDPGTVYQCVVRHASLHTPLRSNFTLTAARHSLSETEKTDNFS

B1: PB11 scFv-Fc (scFv, V domains shown)
VH: QVQLVQSGAEVKKPGASVKISCKASGYTLGTYTLHWMRQAPGQRIEWMGWINPGNGYTKYSQRFQGRVTINRDTSATTTYMELSSLRSEDTAVYFCATDRAPVRRAFDIWGQGTMVTVSS
VL: QSVLTQPASVSGSPGQSVTISCTGTSSDIGSYKFVSWYQHHPGKAPKLMIYDVTQRPSGVPYRFSGSKSGNTASLTISGLQAEDEADYYCCSYAGDYTYALFGGGTQLTVL
notes: Used as scFv-Fc in the staining
In the case of B1, the binding result is recorded as “binds”.

B2: TZ47 (antibody, V domains shown)
VH: QVQLQQSGAELMKPGASVKLSCKATGYTFTGYWIEWIKQRPGHGLEWIGEILPGTGSTNYNEKFKGKATFTADTSSNTAYMQLSSLTTEDSAIYYCAIPGPMDYWGQGTSVTVSS
VL: DIKMTQSPSSMYASLGERVTITCKASQDINSYLSWFQQKPGKSPKTLIYRANRLVDGVPSRFSGSGSGQDYSLTISSLEYEDMGIYYCLQYDEFPYTFGGGTKLEIK
notes: Murine antibody; detected with an anti-mouse AlexaFluor488 secondary antibody
Take B2: the binding result is “binds”.
